Source: patent US8242083B2, “Kinase substrates” (PerkinElmer Health Sciences, Inc., priority 2008, dated 2012)

Legend:
Type in all cases: biochemical
TNK1 = target: T1, TNK1 (Homo sapiens, UniProt Q13470); test: TR-FRET kinase assay, TNK1; conditions: Kinase Concentration 1 nM; 50 nM ULight-labeled substrate, 200 micromolar ATP, 2 hours
T1 sequence (Q13470 1-666): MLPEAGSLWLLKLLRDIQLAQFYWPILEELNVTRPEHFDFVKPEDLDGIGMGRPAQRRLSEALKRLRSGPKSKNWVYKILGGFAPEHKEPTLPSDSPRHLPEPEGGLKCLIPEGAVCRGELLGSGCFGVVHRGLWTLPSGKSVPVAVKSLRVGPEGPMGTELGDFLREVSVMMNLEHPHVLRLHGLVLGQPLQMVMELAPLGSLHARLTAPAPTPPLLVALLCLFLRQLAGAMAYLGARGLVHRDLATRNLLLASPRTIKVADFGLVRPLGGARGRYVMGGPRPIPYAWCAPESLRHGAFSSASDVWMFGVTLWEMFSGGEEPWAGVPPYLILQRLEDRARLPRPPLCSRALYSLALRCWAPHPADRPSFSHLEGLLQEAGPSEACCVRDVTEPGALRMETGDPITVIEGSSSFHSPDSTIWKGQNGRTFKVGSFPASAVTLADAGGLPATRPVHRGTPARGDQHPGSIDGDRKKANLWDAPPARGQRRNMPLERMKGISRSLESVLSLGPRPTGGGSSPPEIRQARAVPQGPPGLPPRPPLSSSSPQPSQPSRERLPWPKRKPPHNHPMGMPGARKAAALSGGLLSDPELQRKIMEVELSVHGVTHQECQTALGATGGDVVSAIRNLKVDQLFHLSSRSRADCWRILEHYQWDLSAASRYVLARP
Method: (§1) TR-FRET kinase assays are performed under standardized conditions: various individual kinases are incubated with 50 nM of kinase substrate BRB1 labeled with the TR-FRET acceptor dye ULight (PerkinElmer) and 200 micromolar ATP in 10 μL of kinase assay buffer (50 mM HEPES pH7.5, 10 mM MgCl2, 3 mM MnCl2, 1 mM EGTA, 2 mM DTT and 0.01% Tween-20) for 2 hours at room temperature. Reactions are stopped with EDTA, and anti-phospho-tyrosine antibodies (clone PT66) labeled with the TR-FRET europium chelate donor dye are added to a final concentration of 2 nM in a final volume of 20 μL. The TR-FRET signal emitted at 665 nm is read one hour after the addition of antibodies using a TR-FRET plate reader such as the Envision® Multilabel Plate reader (PerkinElmer). The emitted signal at 665 nm is proportional to the extent of peptide phosphorylation, Control reactions indicative of background are performed excluding ATP from the reaction.
(§2) Assay conditions are identical to those used described for FIG. 1.

BMX = target: T2, BMX (Homo sapiens, UniProt P51813); test: TR-FRET kinase assay, BMX; conditions: Kinase Concentration 0.5 nM; 50 nM ULight-labeled substrate, 200 micromolar ATP, 2 hours
T2 sequence (P51813 1-675): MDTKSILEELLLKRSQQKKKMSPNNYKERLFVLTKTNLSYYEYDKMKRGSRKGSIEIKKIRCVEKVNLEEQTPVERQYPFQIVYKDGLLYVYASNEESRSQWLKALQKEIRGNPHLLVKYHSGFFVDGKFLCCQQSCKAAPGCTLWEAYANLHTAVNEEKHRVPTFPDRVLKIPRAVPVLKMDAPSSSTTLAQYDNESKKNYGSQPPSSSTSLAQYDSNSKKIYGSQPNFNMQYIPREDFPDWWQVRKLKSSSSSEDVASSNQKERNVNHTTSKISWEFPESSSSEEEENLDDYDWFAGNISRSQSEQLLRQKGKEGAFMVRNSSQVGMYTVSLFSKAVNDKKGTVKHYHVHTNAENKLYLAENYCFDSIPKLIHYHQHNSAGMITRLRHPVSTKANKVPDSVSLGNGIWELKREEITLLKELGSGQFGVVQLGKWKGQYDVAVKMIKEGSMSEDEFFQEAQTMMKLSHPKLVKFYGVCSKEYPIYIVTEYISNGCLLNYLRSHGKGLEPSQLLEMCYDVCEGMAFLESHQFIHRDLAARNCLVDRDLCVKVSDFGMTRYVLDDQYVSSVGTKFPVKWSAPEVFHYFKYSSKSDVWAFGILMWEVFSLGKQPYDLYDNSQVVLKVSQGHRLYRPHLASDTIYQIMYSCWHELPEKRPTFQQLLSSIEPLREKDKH
Method: as §1, §2

EphB2 = target: T3, EphB2 (Homo sapiens, UniProt P29323); test: TR-FRET kinase assay, EphB2; conditions: Kinase Concentration 0.25 nM; 50 nM ULight-labeled substrate, 200 micromolar ATP, 2 hours
T3 sequence (P29323 19-1055): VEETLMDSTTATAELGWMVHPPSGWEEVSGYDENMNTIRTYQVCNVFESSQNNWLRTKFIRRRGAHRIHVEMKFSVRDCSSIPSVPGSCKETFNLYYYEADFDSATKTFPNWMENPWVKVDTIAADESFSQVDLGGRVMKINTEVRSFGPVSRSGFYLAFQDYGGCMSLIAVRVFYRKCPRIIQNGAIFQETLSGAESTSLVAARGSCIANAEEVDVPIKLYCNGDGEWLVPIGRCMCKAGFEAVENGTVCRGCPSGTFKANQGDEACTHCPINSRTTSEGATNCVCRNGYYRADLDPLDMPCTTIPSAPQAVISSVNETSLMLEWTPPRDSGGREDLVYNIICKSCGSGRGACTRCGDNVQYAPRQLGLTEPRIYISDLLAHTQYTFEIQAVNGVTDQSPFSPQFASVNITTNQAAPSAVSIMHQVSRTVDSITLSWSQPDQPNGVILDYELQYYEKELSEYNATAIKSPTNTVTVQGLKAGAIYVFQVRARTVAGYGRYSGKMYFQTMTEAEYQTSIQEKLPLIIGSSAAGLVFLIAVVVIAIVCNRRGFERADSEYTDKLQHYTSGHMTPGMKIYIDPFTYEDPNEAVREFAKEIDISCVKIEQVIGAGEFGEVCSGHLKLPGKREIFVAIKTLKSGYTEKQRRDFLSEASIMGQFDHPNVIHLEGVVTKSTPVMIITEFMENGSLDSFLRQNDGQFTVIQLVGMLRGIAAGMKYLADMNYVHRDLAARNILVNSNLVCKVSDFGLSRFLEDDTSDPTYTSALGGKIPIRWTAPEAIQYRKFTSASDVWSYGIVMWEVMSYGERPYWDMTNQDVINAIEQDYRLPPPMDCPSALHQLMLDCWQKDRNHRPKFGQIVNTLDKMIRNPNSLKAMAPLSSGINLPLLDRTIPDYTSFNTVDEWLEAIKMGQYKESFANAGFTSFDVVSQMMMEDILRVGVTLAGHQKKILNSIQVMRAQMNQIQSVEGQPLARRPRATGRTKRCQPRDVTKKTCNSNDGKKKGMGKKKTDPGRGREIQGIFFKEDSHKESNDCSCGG
Method: as §1, §2

FGR = FGR (Homo sapiens, UniProt P09769); test: TR-FRET kinase assay, FGR; conditions: Kinase Concentration 0.1 nM; 50 nM ULight-labeled substrate, 200 micromolar ATP, 2 hours
Method: as §1, §2

C AYE AYE AYE K EYA EYA EYA K AYA EYE R (CAYEAYEAYEKEYAEYAEYAKAYAEYER; tyrosine kinase substrate peptide) [BRB1]
Signal to Noise ratio with BRB1 Peptide (TNK1): 6.8 | Signal to Noise ratio with BRB1 Peptide (BMX): 7.1 | Signal to Noise ratio with BRB1 Peptide (EphB2): 28.8 | Signal to Noise ratio with BRB1 Peptide (FGR): 29.3
